Biological target: Kss1-7m3-GBD (Kss1-7m3 fused to the Gal4 DNA-binding domain) (S. cerevisiae) (UniProt P14681)
Test: two-hybrid

Sequence of Kss1-7m3-GBD (Kss1-7m3 fused to the Gal4 DNA-binding domain) (S. cerevisiae) (P14681 whole entry, the tested form may be a part): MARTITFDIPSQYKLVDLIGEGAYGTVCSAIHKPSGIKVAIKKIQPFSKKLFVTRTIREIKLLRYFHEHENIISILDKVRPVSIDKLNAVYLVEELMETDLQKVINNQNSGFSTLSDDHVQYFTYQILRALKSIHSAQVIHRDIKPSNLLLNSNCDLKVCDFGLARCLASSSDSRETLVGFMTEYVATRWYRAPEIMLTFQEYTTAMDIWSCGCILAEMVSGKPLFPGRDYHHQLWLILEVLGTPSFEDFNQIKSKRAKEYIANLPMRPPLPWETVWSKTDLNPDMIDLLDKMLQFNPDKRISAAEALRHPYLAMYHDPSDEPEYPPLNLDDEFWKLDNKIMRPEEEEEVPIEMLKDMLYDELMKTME

B1: Ste12-GAD (Ste12 fused to the Gal4 transcriptional activation domain) (natural protein)
chain: MKVQITNSRTEEILKVQANNENDEVSKATPGEVEESLRLIGDLKFFLATAPVNWQENQIIRRYYLNSGQGFVSCVFWNNLYYITGTDIVKCCLYRMQKFGREVVQKKKFEEGIFSDLRNLKCGIDATLEQPKSEFLSFLFRNMCLKTQKKQKVFFWFSVAHDKLFADALERDLKRESLNQPSTTKPVNEPALSFSYDSSSDKPLYDQLLQHLDSRRPSSTTKSDNSPPKLESENFKDNELVTVTNQPLLGVGLMDDDAPESPSQINDFIPQKLIIEPNTLELNGLTEETPHDLPKNTAKGRDEEDFPLDYFPVSVEYPTEENAFDPFPPQAFTPAAPSMPISYDNVNERDSMPVNSLLNRYPYQLSVAPTFPVPPSSSRQHFMTNRDFYSSNNNKEKLVSPSDPTSYMKYDEPVMDFDESRPNENCTNAKSHNSGQQTKQHQLYSNNFQQSYPNGMVPGYYPKMPYNPMGGDPLLDQAFYGADDFFFPPEGCDNNMLYPQTATSWNVLPPQAMQPAPTYVGRPYTPNYRSTPGSAMFPYMQSSNSMQWNTAVSPYSSRAPSTTAKNYPPSTFYSQNINQYPRRRTVGMKSSQGNVPTGNKQSVGKSAKISKPLHIKTSAYQKQYKINLETKARPSAGDEDSAHPDKNKEISMPTPDSNTLVVQSEEGGAHSLEVDTNRRSDKNLPDAT
With B1 the fold above background (two-hybrid reporter) was 6 fold.

Source: paper PMC2172336
